Consider 20 molecules from article PMC10273302 (Science (New York, N.Y.), 2023).

First the molecules themselves.
B1: clonotype286 (10x_4) (antibody, V domains shown)
VH: EVQLVQSGPEVKEPGESLKISCKASGYNFAKYWIAWVRQMPGKGLEWMGIVYPGDSDTRYSPSFQGQVTISADKSLTTAYLQWSSLKASDTAIYYCARGVQDCDSRNCYAYNWFDPWGQGTLVTVSS
VL: DIVMTQSPESLAVSLGERATINCKSSHSVFFSSNNKNYLSWYQQKPGQPPKLLIYWASTRQSGVPDRFSGGGSGTDFTLTISSLQAEDVAVYYCQQYYYSPYTFGQGTKLEIK
B2: clonotype4582 (Quake) (antibody, V domains shown)
VH: EVQLVQSGAEVKKPGESLKISCKASGYTFTNYWIAWVRQMPGKGLEWMGIIFPSDSDTRYSPSFQGQVTISADKSVSTAYLQWSSLKASDTAMYYCARGAATILRGVVTSYNWFDSWGQGTLVTVSS
VL: DVVMTQSPDSLAASLGERATINCTSSHNILYNSNNNNYLAWYQQKPGQPPKLLIYWASTRESGVPDRFSGSGSGTDFTLTISSLQAEDVAVYSCQQYFSTPYTFGQGTKLEIK
B3: flu_c504 (antibody, V domains shown)
VH: EVQLVQSGAEVKKPGESLKISCKASGYTFTRYWIAWVRQMPGKGLEWMGIIYPGDSDTRYNPSFQGQVTISADKSINTAYLQWSSLKASDTAIYYCAMCVGSPTCYGWFDPWGQGTLVTVSS
VL: DIVMTQSPDSLAVSLGERATINCKSSLNILYSSNKKNYLAWYQQKPGQPPKLLIYWASTRESGVPDRFSGSGSGTDFTLTISSLQAEDVAVYYCQQYHSIPYTFGQGSKLEIK
B4: clonotype3 (10x_4) (antibody, V domains shown)
VH: EVQLVQSGAEVKKPGESLKISCKVSGYSFTTYWIAWVRQMPGKGLEWMGIIYPGDSDTRYSPSFQGQVTISADKSVTTAYLQWGSVKASDTAMYYCARPPHFIDAGGRQTPGYFDLWGQGTLVTVSS
VL: DIVMTQSPDSLAVSLGERATINCKSSQTVLFRSNNKNYLAWYQQKPGQPPKLLIYWASTRQSGVPDRFSGSGSGTDFTLTISSLQAEDVALYFCQQYHDSPYTFGQGTKVEIK
B5: clonotype473 (10x_4) (antibody, V domains shown)
VH: EVQLVQSGAEVKKPGESLRISCKGSGYTFSTHWIGWVRHMPGKGLEWVGVIYPDDSDTRLSPSFQGQVTISADKSTTTAFLWWSSLKASDTATYYCARGVQSCIRNTCSFYGWFDRWGQGTRVTVSS
VL: DIVMTQSPDSLAVSLGERATIYCKSSHSLLYSSNNYNYLAWYQQKPGQPPKLLIYWASTRESGVPDRFSGSGSGTDFTLTISSLQAADVAVYYCQQYFYSPYTFGQGTKVEIR
B6: flu_c645 (antibody, V domains shown)
VH: EVQLVQSGAEVKKPGESLKISCQASGYIFVNYWVGWLRQAPGKGLEWIGIIFPGDSDTTYSPSFQGQVTISAAKSINTVYLQWNSLKASDTAMYYCARAPVPGMSGWFDPWGQGTLVTVSS
VL: DIVMTQSPDSLAVSLGGGATIKCKSSHSLLYSSNSKNYLSWYQQKPGQPPKLLFYWASTRESGVPDRFSGSGSGTDFTLTIDSLQAEDLAVYFCQQYFYTPYTFGQGTKLEIN
B7: clonotype2760 (Quake) (antibody, V domains shown)
VH: EVQLVQSEIEVRKPGESLKISCKGSGYNFATHWIGWVRQMPGKGLEWMGTIYPLDSDTRYSPYFQGQVTISADKSINTAYLQWNSLKASDTAMYYCARVPEGSVVAGEVHFYYYMDVWGKGTAVTVSS
VL: DIVMTQSPDSLAVSLGERATINCKSSQSLLYSSNNRNYLAWYQHKPGQPPKLLMYWASTRESGVPDRFSGGGSETDFTLTISSLQAEDVAMYYCQQYYFTPYTFGQGTKLEIK
B8: flu_c326 (antibody, V domains shown)
VH: EVQLVQSGAEVKKPGESLKISCRTSGFTFTRHWIAWVRQMPGKGLEWMGIIYPGDSDVTYNPSFQGQVTISADKSITTAYLQWSSLQASDTAIYFCAKPYNYCNTTTCYTRGYFDFWGRGTLVTVSS
VL: DIVMTQSPDSLAVSLGERATINCKSSQSLLYRSDNKNYLAWYQQNPGQPPKLLIYWASIRESGVSDRFSGSGSGTDFTLTINSLQAEDVAVYYCQQYYFTPYTFGQGTKLEIK
notes: recombinant human IgG
B9: EBV_c98 (antibody, V domains shown)
VH: QVQLVESGGGVVQPGRSLRLSCAASGITLSSYGMHWVRQAPGKGLEWVAVISYDGSKKDYGDSVKGRFTISRDNFKNTLYLQMSSLRAEDTAVYYCAKDTIFDGMDVWGQGTTVTVSS
VL: DVVMTQSPLSLPGTLGQPASISCRSSQSLVYSDGNTYLNWFQQRPGQSPRRLIYQVSNRDSGVPDRFSGSGSGTDFTLTISKVEAEDVGVYYCMQSTHWPLTFGGGTKVEIK
notes: recombinant human IgG
B10: EBV_c63 (antibody, V domains shown)
VH: QVQLVQSGAEVKKPGASVKVSCKASGYTFTSYYIHWVRQAPGQGLEWMGIINPSDGTTDYAQRLQGRVTMTRVTSTSTVYMELSSLRSEDTAVYYCARDREQMVRGIIISNGLDVWGQGTTVTVSS
VL: QSALTQPASVSGSPGQSITFSCTGTSSDVGGYNFVSWYQQHPGKAPKLMIYDVTNRPSGVSNRFSGSKSGNTASLTISGLQAEDEADYYCSSYTSSSTLVFGTGTKVTVL
notes: recombinant human IgG
B11: EBV_c120 (antibody, V domains shown)
VH: QVHLVQSGAEVKKPGASVKVSCKASGFAFTTYDINWVRQAAGQGLEWMGWMNPNSGNRGYAQKFQGRVTMTRNTSITTAYMELTSLTSEDTAVYYCARAYCNSNRCSPELFDPWGQGTQVTVSS
VL: QSVLTQPPSVSAAPGQMVTISCSGSSSNIGNNFVSWYQQLPGTVPKYVIYDNNKRPSGIPERFSGSRSGTSATLGITGLQTGDEADYYCATWDSSLRGVVFGGGTKLTVL
notes: recombinant human IgG; source: Expi293 or ExpiCHO, recombinant; filtered culture supernatant
B12: EBV_c10 (antibody, V domains shown)
VH: QVHLVQSGAEVKKPGASVKVSCQASGFAFTTYDINWVRQAAGHGLEWMGWMNPNSGNRGYAQKFQGRVTMTRNTSITTAYMELTSLTPDDTAVYYCARAFCNSNRCSPELFDPWGQGTQVTVSS
VL: QSVLTQPPSVSAAPGQMVTISCSGGSSNIGNNFVSWYQQIPGTVPKYVIYDNDKRPSGIPERFSGSRSGTSATLVITGLQTGDEADYYCATWDNSLRGVVFGGGTKLTVL
notes: recombinant human IgG
B13: EBV_c77 (antibody, V domains shown)
VH: QVHLVQSGAEVKRSGASVKVSCKASGFTFTNHDINWVRQAPGQGLEWMGWINPNSGNTGFAQKFQGRVTLTRNNSITTAYMELRGLRYEDTAIYYCARAFCNSDRCSPELFDPWGQGTLVTVSS
VL: QSVLTQPPSVSADPGQRVTISCSGTGSNIGNNYVSWYQQLPGTAPRFLIYDNNKRTSGIPDRFSGSKSGTSATLAITGLQTGDEADYYCATWDTSLRGVVFGGGTKLTVL
notes: recombinant human IgG
B14: EBV_c138 (antibody, V domains shown)
VH: QVHLVQSGAEVKKSGASVKVSCKASGFTFTNHDINWVRQAPGQGLEWMGWINPNSGNTGFAQKFRGRVTLTRNNSITTAYMELRGLKYEDTAIYYCARAFCNSDRCSPELFDPWGQGTLVTVSS
VL: QSVLTQPPSVSADPGHRVTISCSGTSSNIGNNYVSWYQQLPGTAPRFLIYDNNKRTSGIPDRFSGSKSGTSATLTISGLQTGDEADYYCATWDTSLRGVVFGGGTKLTVL
notes: recombinant human IgG
B15: EBV_c127 (antibody, V domains shown)
VH: QVHLVQSGAEVKKFGASVQVSCKASGFTFTNHDINWVRQAPGQGLEWMGWINPNSGNTGFAQKFRGRVTLTRNNSITTAYMELRGLRYEDTAIYYCARAFCNSDRCSPELFDPWGQGTLVTVSS
VL: QSVLTQPPSVSADPGQRVTISCSGTSSNIGKNFVSWYQQFPGTAPKFLIYDNNKRASGIPDRFSGSKSGTSAILAITGLQTGDEADYYCATWDNSLRGVLFGGGTKLTVL
notes: recombinant human IgG
B16: EBV_c124 (antibody, V domains shown)
VH: QVQLVQSGAEVRKPGASVKVSCKASGYTFNTYFIQWVRQAPGQGLEWMGVINSSGSGTRYAPKFRGRVILTRDTSTSTAFMELSSLTSEDTAVYYCARAAEGDYGDSALDYWGQGTLVSVSS
VL: SYELTQPHSVSVSPGQTASIACSGEKLDKKYTCWYQQRPGQSPVLVIYQDRKRPSGIPERFSGSNSGNTATLTISGTQAIDEADYYCQVWDSNTVVFGGGTKLTVL
notes: recombinant human IgG
B17: EBV_c124 with light chain D51K (antibody, V domains shown)
VH: QVQLVQSGAEVRKPGASVKVSCKASGYTFNTYFIQWVRQAPGQGLEWMGVINSSGSGTRYAPKFRGRVILTRDTSTSTAFMELSSLTSEDTAVYYCARAAEGDYGDSALDYWGQGTLVSVSS
VL: SYELTQPHSVSVSPGQTASIACSGEKLDKKYTCWYQQRPGQSPVLVIYQKRKRPSGIPERFSGSNSGNTATLTISGTQAIDEADYYCQVWDSNTVVFGGGTKLTVL
notes: source: Expi293 or ExpiCHO, recombinant; filtered culture supernatant
B18: EBV_c83 (antibody, V domains shown)
VH: QEQLVQSGTAVKKPGASVKVSCKTSRDTFTIYYIHWVRQAPGQGLEWMGIINPSGGNTSHAQKFQGRVTMTSDASTSTVYMELSSLRFEDTATYYCARVGYNWGSHSVSSPGAMDVWGQGTTVSVSS
VL: SIELTQPSSVSVSPGQTATITCSGDVLPKQYAYWYQQKPGRAPMLVVYKDSERPSGISERFSGSSAGTAVTLTISAVQAEDEADYYCQSADTGGTYVIFGGGTKLTVL
notes: recombinant human IgG
B19: EBV_c40 with light chain D51K (antibody, V domains shown)
VH: QVQMVQSGAEVKRPGDSVRVSCKASGYIFTNYHLHWVRQAPGQGLEWMGIVTPNGSRTNYAQKFKGRVIMSSEASTNTLYMDLSSLKSEDTAVYFCARARDLYGDSDFDYWGQGTPVMVSS
VL: SYELSQPPSVSVSPGQTASVSCSGDSLGDKYVSWYQQRPGQSPVVVIYQKRKRPSGIPERFSGSNSGKAATLTISGAQAVDEATYFCQAWESSNVVFGGGTTLTVL
notes: as for B17
B20: EBV_c57 (antibody, V domains shown)
VH: QVQLVQSGAEVKKPGASVKVSCKASGYTFTSYDINWVRQAPGQGLEWLGWMNPNNENTGYAQKFQGRIIMTRNTSIDTVYMELSSLRSEDTAVYYCEAIAAVSATEGAFDIWGQGTMVTVSS
VL: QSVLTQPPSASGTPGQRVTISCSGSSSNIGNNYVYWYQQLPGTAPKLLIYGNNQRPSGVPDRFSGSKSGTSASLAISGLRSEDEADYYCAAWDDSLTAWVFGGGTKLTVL
notes: recombinant human IgG

For one experiment, the target named is T1, influenza A minimal peptide VPNGTLVKTITNDQI (spotted for dot blot) (Influenza A virus (H3 hemagglutinin …)).
T1 chain: VPNGTLVKTITNDQI
Assay: not given
Conditions: not given
With B1, the binding result is “binds”.

As to B2, the binding result is on record as “binds”. Still for that read-out and setting: as for B3, the entry is “binds”; as for B4, “binds”. Take B5: the binding result is listed as “binds”. B6: the binding result is “binds”.

Take B7: the binding result is listed as “binds”.

Another experiment deals with T2, influenza A H3 hemagglutinin ectodomain trimer, A/Aichi/02/1968 (Influenza A virus A/Aichi/2/1968 (H3N2, …, UniProt P03437)).
T2 construct: source: Expi293, transient transfection, purified (Ni-NTA, SEC)
Put plainly: ELISA. The following applies: both partners purified. On the technique in general: ELISA stands for enzyme-linked immunosorbent assay.
Turning to B8, the binding result is “binds”.

The target in another experiment is T3, EBV minimal peptide PPSTSSKLRPRWTFT (spotted for dot blot) (Human herpesvirus 4 (Epstein-Barr …)).
T3 construct: also called EBV gp350 minimal peptide; 72153; source: "recombinant peptide" spotted on nitrocellulose
T3 chain: PPSTSSKLRPRWTFT
Put plainly: far-Western, overlay or dot blot. The following applies: one partner purified.
Consider B9, for which the binding result was “binds”. On to B10, for which the binding result was “binds”. In the case of B11, the binding result is listed as “binds”. With B12, the binding result is “binds”. Turning to B13, the binding result is “binds”. Same read-out and setting: as for B14, the entry is “binds”; as for B15, “binds”. Regarding B16, the binding result is listed as “binds”. For B17, the binding result is reported as “binds”. Consider B18, for which the binding result was “binds”. B19: the binding result is “binds”. As to B20, the binding result is “binds”.
